From PMC8034618

Assays:
Assay in all cases: EMSA
[1] = test system: LARP1 665-947 cluster 6 partial phosphomimetic (5 sites) (Homo sapiens); conditions: tRNA and BSA competitors; m7Gppp cap; EMSA: 20 mM Tris-HCl pH 8, 150 mM NaCl, 10% glycerol, 1 mM DTT, 0.5 ug tRNA, 1 ug BSA in 10 ul; on ice 30 min; 7-8% native 0.5x TBE gel at 4 C; RNA <=200 pM
[2] = test system: LARP1 796-1019 cluster 7 phosphomimetic (Homo sapiens); conditions: tRNA and BSA competitors; enhanced relative to WT 796-1019; m7Gppp cap; EMSA: 20 mM Tris-HCl pH 8, 150 mM NaCl, 10% glycerol, 1 mM DTT, 0.5 ug tRNA, 1 ug BSA in 10 ul; on ice 30 min; 7-8% native 0.5x TBE gel at 4 C; RNA <=200 pM
[3] = test system: LARP1 665-947 cluster 6 full phosphomimetic (10 sites) (Homo sapiens); conditions: tRNA and BSA competitors; stated 4.99-fold reduction; m7Gppp cap; EMSA: 20 mM Tris-HCl pH 8, 150 mM NaCl, 10% glycerol, 1 mM DTT, 0.5 ug tRNA, 1 ug BSA in …; on ice 30 min; 7-8% native 0.5x TBE gel at 4 C; RNA <=200 pM

m7G-RPS6-UTR (capped RPS6 20-mer)
Kd [1]: 902 nM | Kd [2]: 44 nM | Kd [3]: 2840 nM
